For assay [1], the target named is T1, canine urokinase plasminogen activator receptor, recombinant protein (canine).
T1 construct: Recombinant c uPAR produced by VIB (Ghent); also called c uPAR; canine uPAR
T1 chain: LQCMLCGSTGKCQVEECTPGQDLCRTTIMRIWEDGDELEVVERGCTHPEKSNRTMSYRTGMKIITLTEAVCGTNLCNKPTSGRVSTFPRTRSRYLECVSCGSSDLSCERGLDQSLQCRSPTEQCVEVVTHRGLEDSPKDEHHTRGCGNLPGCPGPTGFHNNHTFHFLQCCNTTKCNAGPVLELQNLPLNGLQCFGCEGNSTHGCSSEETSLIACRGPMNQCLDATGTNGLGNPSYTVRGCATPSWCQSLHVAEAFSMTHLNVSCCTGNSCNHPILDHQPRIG
Briefly: SPR (Biacore T200) kinetics, purified sdAb 150-0.62 nM, c uPAR immobilised on CM5, kd/ka. The method, then:
(§1) The thermal stability of the sdAbs was determined via a thermal shift assay. Melting temperatures (Tₘ) ranged between 59.5 and 73.6° C. (Table 1). The kinetic parameters (kₐ, Kd, KD) of the purified sdAbs were evaluated via SPR on respectively h and c uPAR recombinant protein (FIG. 10, Table 1). Contrarily to the BE-ELISA results, no h/m or h/m/c cross-reactive sdAbs were identified. […] Finally, their binding to cell-membrane-expressed uPAR was investigated via flow cytometry using 1) h or c uPAR lentivirally transduced HEK293T cells and 2) U87 or HT29 cells with natural h expression. SdAbs showing a significant shift in binding compared to the control conditions (i.e., binding of the non-targeting sdAb R3B23) were further taken into consideration (FIG. 2). Based on the combined results in terms of production yield, stability, binding characteristics, and cross-reactivity, 2 anti-h uPAR (sdAb 3 and 4) and 4 cross-reactive h/c uPAR (sdAb 15, 16, 17 and 18, having respectively SEQ ID NOs: 2, 20, 21, 22) sdAbs were selected for further in vivo evaluation.
(§2) SPR was performed using a Biacore device (Biacore T200; Cytiva). First, the CM5 sensor chip (Biacore, Series S Sensor Chip CM5; Cytiva) was activated with 1-ethyl-3-(3-dimethylaminopropyl) carbodiimide/N-hydroxysuccinimide (EDC/NHS; Amine Coupling Kit; Cytiva). Subsequently, h, m or c uPAR recombinant proteins (5 μg/mL) were immobilized on separate chips at pH 5. The SPR measurements were done at 25° C. in HEPES buffered saline (HBS; Cytiva) as a running buffer, with a flow rate of 30 μL/min. For off-rate screening, the contact time was set at 120 s, dissociation time at 600 s, and the runs were replicated 5 times. […] The association step was allowed for 180 s, the dissociation step for 600 s. For both studies, regeneration of 20 s at 30 μL/min using 0.1 M glycine at pH 2.5 followed by a stabilization period of 60 s, was performed.
A general note: Surface plasmon resonance follows binding to a sensor surface in real time, without labels.

For assay [2], the target named is T2, human urokinase plasminogen activator receptor, recombinant extracellular domain protein (human, UniProt Q03405 23-303).
T2 construct: Bought recombinant protein (Sino Biological); also called h uPAR; human uPAR
T2 sequence (Q03405 23-303 limits assumed): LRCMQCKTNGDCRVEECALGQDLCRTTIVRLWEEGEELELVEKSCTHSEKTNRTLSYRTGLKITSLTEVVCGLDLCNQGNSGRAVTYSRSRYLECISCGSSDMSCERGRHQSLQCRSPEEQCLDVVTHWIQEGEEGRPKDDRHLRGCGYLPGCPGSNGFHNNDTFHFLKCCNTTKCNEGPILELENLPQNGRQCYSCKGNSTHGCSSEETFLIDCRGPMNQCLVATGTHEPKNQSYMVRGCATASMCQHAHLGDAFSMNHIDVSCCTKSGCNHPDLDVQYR
Briefly: SPR (Biacore T200) kinetics, purified sdAb 150-0.62 nM, h uPAR immobilised on CM5, kd/ka. The method, then:
as §1, §2

Assay [3] has as its target T1, canine urokinase plasminogen activator …. As to the kind of experiment: SPR (Biacore T200) kinetics, purified sdAb 150-0.62 nM, c uPAR immobilised on CM5, 1:1 fit. The method, then:
as §1, §2

Assay [4] concerns the target T2, human urokinase plasminogen activator …. Briefly: SPR (Biacore T200) kinetics, purified sdAb 150-0.62 nM, h uPAR immobilised on CM5, 1:1 fit. As for the experimental part:
as §1, §2

Assay [5] addresses T1, canine urokinase plasminogen activator …. As to the kind of experiment: SPR (Biacore T200) off-rate screening of bacterial extract, c uPAR immobilised on CM5; column koff. As for the experimental part: as §2
For assay [6], the target named is T2, human urokinase plasminogen activator …. Briefly: SPR (Biacore T200) off-rate screening of bacterial extract, h uPAR immobilised on CM5; column koff. The method, then: as §2
The target in assay [7] is T1, canine urokinase plasminogen activator …. Briefly: SPR (Biacore T200) kinetics, purified sdAb 150-0.62 nM, c uPAR immobilised on CM5, 1:1 fit; column kd. As for the experimental part:
as §1, §2

The target in assay [8] is T2, human urokinase plasminogen activator …. As to the kind of experiment: SPR (Biacore T200) kinetics, purified sdAb 150-0.62 nM, h uPAR immobilised on CM5, 1:1 fit; column kd. As for the experimental part:
as §1, §2

B1: sdAb 15 (clone 5A4) with carboxy-terminal hexahistidine tag (VHH)
VHH: QVQLQESGGGWVQPGGSLRLSCAASGFTLDYYGIGWFRQAPGKEREGVSCISSSDGSTYYADSVKGRFTISRDNAKNTVYLQMNSLKPEDTAVYYCATRGASCYYTGSYSLGYDYWGQGTQVTVSS
notes: Lead compound; C-terminal 6His for purified-protein SPR; koff screen used bacterial extracts of the pMECS-GG construct; also called sdAb15.6His; Nr 15
One may read the Kd as the free concentration of one partner at which half of the binding sites on the other are occupied at equilibrium, for simple one-to-one binding. As a reminder, the kon is the rate constant with which the complex forms. Usually koff stands for the first-order rate constant of dissociation. As for B1, the results for the Kd in assay [1] and in assay [2] were 12 nM and 2.1 nM, respectively. The kon in assay [3] was 170000 M⁻¹ s⁻¹; in assay [4] it was 1.6e+06 M⁻¹ s⁻¹. Also, the koff in assay [5] worked out at 0.0065 s⁻¹; in assay [6], 0.0042 s⁻¹; in assay [7], 0.002 s⁻¹; in assay [8], 0.0034 s⁻¹.

B2: sdAb 17 (clone 5B7) with carboxy-terminal hexahistidine tag (VHH)
VHH: QVQLQESGGGLVQPGGSLRLSCAVSGSTLEYYGIGWFRQAPGKEREGVSCISSSDGSTYYADSVKGRFTISRDNAKNTVYLQMNSLKPEDTAVYYCATRGASCYYTGSYSLGYDYWGQGTQVTVSS
notes: C-terminal 6His for purified-protein SPR; koff screen used bacterial extracts; also called Nr 17
On to B2, for which the Kd came to 17 nM in assay [1] and 2.3 nM in assay [2]. Also, the values for the kon in assay [3] and in assay [4] were 120000 M⁻¹ s⁻¹ and 860000 M⁻¹ s⁻¹, respectively. The koff turned out to be 0.0073 s⁻¹ in assay [5], 0.0026 s⁻¹ in assay [6], 0.0019 s⁻¹ in assay [7] and 0.0019 s⁻¹ in assay [8].

B3: sdAb 16 (clone 5A5) with carboxy-terminal hexahistidine tag (VHH)
VHH: QVQLQESGGGLVQPGGSLRLSCAISGFTLDYYGIGWFRQAPGKEREGVSCISSSDGSTYYADSVKGRFTISRDNAKNTVYLQMNSLKPEDTAVYYCATRGASCYYSGSYSLGYDYWGQGTQVTVSS
notes: C-terminal 6His for purified-protein SPR; koff screen used bacterial extracts; also called Nr 16
With B3, the values for the Kd in assay [1] and in assay [2] were 36 nM and 3 nM, respectively. The kon in assay [3] worked out at 86000 M⁻¹ s⁻¹; in assay [4], 500000 M⁻¹ s⁻¹. The koff is 0.01 s⁻¹ in assay [5], 0.0027 s⁻¹ in assay [6], 0.0031 s⁻¹ in assay [7] and 0.0015 s⁻¹ in assay [8].

B4: sdAb 18 (clone 5H2) with carboxy-terminal hexahistidine tag (VHH)
VHH: QVQLQESGGGLAQPGGSLRLSCTASGFTSDYYGIGWFRQAPGKEREGVSCISSSDGSTYYADSVKGRFTISRDNAKNTVYLQMNSLKPEDTAVYYCATRGASCYYTGSYSLGYDYWGQGTQVTVSS
notes: C-terminal 6His for purified-protein SPR; koff screen used bacterial extracts; also called Nr 18
Turning to B4, the Kd in assay [1] turned out to be 34 nM; in assay [2] it was 4.7 nM. Besides, the kon in assay [3] came to 100000 M⁻¹ s⁻¹; in assay [4] it was 840000 M⁻¹ s⁻¹. For the same molecule, the koff in assay [5] came to 0.0092 s⁻¹; in assay [6], 0.0031 s⁻¹; in assay [7], 0.0035 s⁻¹; in assay [8] it was 0.004 s⁻¹.

(Values after US20260139066A1 (VRIJE UNIVERSITEIT BRUSSEL, published 2026).)
